Consider 5 molecules from publication PMC10397247.

In one experiment the target is T1, 4H3697-AA.
T1 chain: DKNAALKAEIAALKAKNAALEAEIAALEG
As to the kind of experiment: two-hybrid library CCmax.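 Also: natural log of median RNA to DNA barcode read ratio; higher means stronger binding.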 To be noted: mean of both orientations.

A further experiment concerns the target T2, 4H3631-AA.
T2 chain: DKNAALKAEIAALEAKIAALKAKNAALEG
As to the kind of experiment: two-hybrid library CCmax.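 Also: natural log of median RNA to DNA barcode read ratio; higher means stronger binding.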

The next experiment addresses T3, 4H3865-AA.
T3 chain: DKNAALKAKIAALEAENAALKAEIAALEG
Briefly: two-hybrid library CCmax.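 Also: natural log of median RNA to DNA barcode read ratio; higher means stronger binding.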 The following applies: mean of both orientations.

The target in a further experiment is T4, 4H982-AA.
T4 chain: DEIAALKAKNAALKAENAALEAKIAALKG
As to the kind of experiment: two-hybrid library CCmax.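 Also: natural log of median RNA to DNA barcode read ratio; higher means stronger binding.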 To be noted: mean of both orientations.

The target of a further experiment is T5, 4H384-AA.
T5 chain: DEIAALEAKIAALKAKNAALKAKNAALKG
As to the kind of experiment: two-hybrid library CCmax.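 Also: natural log of median RNA to DNA barcode read ratio; higher means stronger binding.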 To be noted: mean of both orientations.

The target in a further experiment is T6, 4H697-AA.
T6 chain: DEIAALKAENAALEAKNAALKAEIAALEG
Briefly: two-hybrid library CCmax.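 Also: natural log of median RNA to DNA barcode read ratio; higher means stronger binding.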 To be noted: mean of both orientations.

A further experiment concerns the target T7, 4H3718-AA.
T7 chain: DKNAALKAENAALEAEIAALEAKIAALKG
As to the kind of experiment: two-hybrid library CCmax. The following applies: mean of both orientations.

For another experiment, the target named is T8, 4H536-AA.
T8 chain: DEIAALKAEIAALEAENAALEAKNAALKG
As to the kind of experiment: two-hybrid library CCmax. The following applies: mean of both orientations.

The next experiment concerns the target T9, 4H797-AA.
T9 chain: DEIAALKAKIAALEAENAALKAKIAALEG
Briefly: two-hybrid library CCmax. The following applies: mean of both orientations.

The target of a further experiment is T10, 4H3395-AA.
T10 chain: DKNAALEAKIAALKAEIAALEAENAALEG
Briefly: two-hybrid library CCmax. To be noted: mean of both orientations.

The next experiment has as its target T11, 4H850-AA.
T11 chain: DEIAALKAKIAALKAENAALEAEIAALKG
Briefly: two-hybrid library CCmax. To be noted: mean of both orientations.

The next experiment deals with T12, 4H629-AA.
T12 chain: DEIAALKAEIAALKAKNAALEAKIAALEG
Briefly: two-hybrid library CCmax. To be noted: mean of both orientations.

Another experiment addresses T13, 4H745-AA.
T13 chain: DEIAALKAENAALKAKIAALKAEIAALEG
As to the kind of experiment: two-hybrid library CCmax. The following applies: mean of both orientations.

The target in another experiment is T14, 4H3410-AA.
T14 chain: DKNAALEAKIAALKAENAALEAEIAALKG
Briefly: two-hybrid library CCmax. The following applies: mean of both orientations.

The next experiment addresses T15, 4H3590-AA.
T15 chain: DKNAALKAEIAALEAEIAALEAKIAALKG
As to the kind of experiment: two-hybrid library CCmax. To be noted: mean of both orientations.

The next experiment concerns the target T16, 4H930-AA.
T16 chain: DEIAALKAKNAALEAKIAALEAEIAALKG
Briefly: two-hybrid library CCmax. To be noted: mean of both orientations.

Another experiment deals with T17, 4H485-AA.
T17 chain: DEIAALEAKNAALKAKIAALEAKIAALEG
As to the kind of experiment: two-hybrid library CCmax. The following applies: mean of both orientations.

A further experiment deals with T18, 4H3753-AA.
T18 chain: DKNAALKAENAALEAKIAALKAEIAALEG
As to the kind of experiment: two-hybrid library CCmax. The following applies: mean of both orientations.

In the next experiment the target is T19, 4H710-AA.
T19 chain: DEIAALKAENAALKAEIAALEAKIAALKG
Briefly: two-hybrid library CCmax. The following applies: mean of both orientations.

The target of a further experiment is T20, 4H3165-AA.
T20 chain: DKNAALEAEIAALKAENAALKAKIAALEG
Briefly: two-hybrid library CCmax. The following applies: mean of both orientations.

For another experiment, the target named is T21, 4H3381-AA.
T21 chain: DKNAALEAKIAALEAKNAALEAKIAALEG
As to the kind of experiment: two-hybrid library CCmax. To be noted: mean of both orientations.

Another experiment concerns the target T22, 4H458-AA.
T22 chain: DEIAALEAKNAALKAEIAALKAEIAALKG
As to the kind of experiment: two-hybrid library CCmax. To be noted: mean of both orientations.

The next experiment addresses T23, 4H3120-AA.
T23 chain: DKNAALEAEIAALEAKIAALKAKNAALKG
Briefly: two-hybrid library CCmax.

The target in the next experiment is T24, 4H94-AA.
T24 chain: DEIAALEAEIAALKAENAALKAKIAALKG
Briefly: two-hybrid library CCmax. The following applies: mean of both orientations.

A further experiment addresses T25, 4H570-AA.
T25 chain: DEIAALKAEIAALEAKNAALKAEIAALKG
As to the kind of experiment: two-hybrid library CCmax. To be noted: mean of both orientations.

In another experiment the target is T26, 4H891-AA.
T26 chain: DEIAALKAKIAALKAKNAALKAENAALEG
Briefly: two-hybrid library CCmax. To be noted: mean of both orientations.

In a further experiment the target is T27, 4H909-AA.
T27 chain: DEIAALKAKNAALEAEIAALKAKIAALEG
Briefly: two-hybrid library CCmax. To be noted: mean of both orientations.

In another experiment the target is T28, 4H3130-AA.
T28 chain: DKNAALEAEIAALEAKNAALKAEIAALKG
As to the kind of experiment: two-hybrid library CCmax.

For a further experiment, the target named is T29, 4H63-AA.
T29 chain: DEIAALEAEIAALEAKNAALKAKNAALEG
Briefly: two-hybrid library CCmax. The following applies: mean of both orientations.

The target of another experiment is T30, 4H483-AA.
T30 chain: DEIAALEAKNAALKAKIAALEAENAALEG
Briefly: two-hybrid library CCmax. The following applies: mean of both orientations.

The target in a further experiment is T31, 4H464-AA.
T31 chain: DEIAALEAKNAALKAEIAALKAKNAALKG
As to the kind of experiment: two-hybrid library CCmax.

The next experiment concerns the target T32, 4H754-bA.
T32 chain: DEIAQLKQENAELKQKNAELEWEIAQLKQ
Briefly: two-hybrid library CCNG1.

A further experiment deals with T33, 4H883-bA.
T33 chain: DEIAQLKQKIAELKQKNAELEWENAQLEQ
Briefly: two-hybrid library CCNG1.

The target of another experiment is T34, 4H953-bA.
T34 chain: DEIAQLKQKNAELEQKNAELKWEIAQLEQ
Briefly: two-hybrid library CCNG1.

In a further experiment the target is T35, 4H797-bA.
T35 chain: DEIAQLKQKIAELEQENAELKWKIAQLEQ
As to the kind of experiment: two-hybrid library CCNG1.

In a further experiment the target is T36, 4H967-bA.
T36 chain: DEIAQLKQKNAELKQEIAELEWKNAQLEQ
As to the kind of experiment: two-hybrid library CCNG1.

For the next experiment, the target named is T37, 4H72-bA.
T37 chain: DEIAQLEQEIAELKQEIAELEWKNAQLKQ
Briefly: two-hybrid library CCNG1.

A further experiment addresses T38, 4H908-bA.
T38 chain: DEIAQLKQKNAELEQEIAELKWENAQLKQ
Briefly: two-hybrid library CCNG1.

In the next experiment the target is T39, 4H918-bA.
T39 chain: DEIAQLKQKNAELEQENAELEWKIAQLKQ
Briefly: two-hybrid library CCNG1.

Where two headings read alike, the source gives them in different places.

As for DKNAALKAEIAALEAKIAALKAKNAALEG [4H3631-AA], the interaction score is -1.62 with 4H3697-AA; 0.402 in the experiment with 4H3631-AA; -1.53 with 4H3865-AA; -1.91 with 4H982-AA; -1.07 with 4H384-AA; -1.8 in the experiment with 4H697-AA. The same molecule had an interaction score in the experiment with 4H3718-AA of 0.0628.

Regarding DKNAALEAEIAALEAKIAALKAKNAALKG [4H3120-AA], the interaction score with 4H536-AA is 1.51; in the experiment with 4H797-AA, -1.9; in the experiment with 4H3395-AA it was 2.17; with 4H3697-AA it was -1.39; in the experiment with 4H850-AA, -0.918; with 4H629-AA it was -1.66. For the same molecule, the interaction score with 4H745-AA is -1.09; with 4H3410-AA, -1.25; with 4H3865-AA, -1.52; with 4H3590-AA, 1.08; with 4H930-AA it was -1.5; with 4H485-AA it was -0.737. Also, the interaction score is 0.619 in the experiment with 4H3753-AA; -1.56 with 4H710-AA; -1.33 with 4H3165-AA; -1.79 with 4H3381-AA; -1.3 with 4H458-AA; 1.15 in the experiment with 4H3120-AA. The interaction score in the experiment with 4H94-AA is -1.07; in the experiment with 4H570-AA, -0.988; in the experiment with 4H891-AA, -0.991; with 4H909-AA, -1.58; with 4H3130-AA (mean of both orientations) it was -0.632.

As for DEIAALEAKNAALKAEIAALKAKNAALKG [4H464-AA], the results for the interaction score in the experiment with 4H63-AA, in the experiment with 4H483-AA and in the experiment with 4H464-AA were -1.22, -0.618 and -1.22, respectively.

Regarding DKNAALEAEIAALEAKNAALKAEIAALKG [4H3130-AA], the interaction score in the experiment with 4H536-AA is -0.902; with 4H797-AA, -1.21; with 4H3395-AA it was -1.29; with 4H3697-AA it was -0.0288; in the experiment with 4H850-AA, 2.04; with 4H629-AA, -1.31. Further, the interaction score in the experiment with 4H745-AA is -1.54; with 4H3410-AA, 2.07; with 4H3865-AA, 1.11; with 4H3590-AA it was 0.624; with 4H930-AA, -1.73; in the experiment with 4H485-AA, -1.58. Also, the interaction score in the experiment with 4H3753-AA was -0.789; with 4H710-AA, -1.31; in the experiment with 4H3165-AA, -1.3; with 4H3381-AA, -1.07; in the experiment with 4H458-AA, -3.23; with 4H94-AA, -0.202. Also, the interaction score was -0.712 in the experiment with 4H570-AA, -1.99 with 4H891-AA, -1.06 in the experiment with 4H909-AA and 0.118 with 4H3130-AA.

As to DEIAQLEQEIAELKQEIAELEWKNAQLKQ [4H72-bA], the interaction score is -0.173 with 4H754-bA; 1.05 with 4H883-bA; -0.161 with 4H953-bA; -0.956 with 4H797-bA; -0.0446 in the experiment with 4H967-bA; 0.83 with 4H72-bA. Further, the interaction score in the experiment with 4H908-bA was -0.464; in the experiment with 4H918-bA, -0.479.
